The values below come from article PMC11626169.

For the data set, the target named is T1, GST-HY5 (Arabidopsis thaliana, UniProt O24646 1-168).
T1 sequence: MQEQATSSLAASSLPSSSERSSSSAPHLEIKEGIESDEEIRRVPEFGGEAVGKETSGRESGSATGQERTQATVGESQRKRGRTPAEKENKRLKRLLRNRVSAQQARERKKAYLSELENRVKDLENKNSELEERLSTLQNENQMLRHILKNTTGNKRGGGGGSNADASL
As to the kind of experiment: EMSA. A general note: In EMSA bound probe runs differently from free probe, usually more slowly.

B1: NST3 promoter Probe 1 (dsDNA)
DNA 1: CATGACATTACACGTCAAAAGAAATATGTCTTACGTCAGAACTTACGTAT
DNA 2: ATACGTAAGTTCTGACGTAAGACATATTTCTTTTGACGTGTAATGTCATG
Turning to B1, the binding result was “binds”.

B2: NST3 promoter Probe 2 (dsDNA)
DNA 1: AATTAACATGGTAGAATGTAGATGACGTAGATCATGAAACGAGTGTGTGA
DNA 2: TCACACACTCGTTTCATGATCTACGTCATCTACATTCTACCATGTTAATT
B2: the binding result is listed as “binds”.
